Target: full length nPIST (1st - 463rd aa) (mouse) (UniProt Q8BH60)
Experiment: SPR

Work on “F-actin (filamentous actin) (from UniProt P68135 1-377) (natural protein)” yielded a Kd of 13.3 nM, a koff of 0.00123 s⁻¹ and a kon of 92500 M⁻¹ s⁻¹.
